According to patent US20050037448A1:

Legend:
[1] = biological target: des-64,65-proinsulin (UniProt P01308); experiment: sandwich immunoenzymatic C-peptide assay: PEP001 beads, goat polyclonal anti-C-peptide-alkaline phosphatase; no AC1D4
[2] = biological target: human proinsulin (human) (UniProt P01308); experiment: as above
[3] = biological target: des-31,32-proinsulin (UniProt P01308); experiment: as above
[4] = biological target: des-64,65-proinsulin (UniProt P01308); experiment: competitive RIA, PEP001-coated tubes, 125I-Tyr-C-peptide; serum E2 overloaded with 0.16 pmol/ml des-64,65-proinsulin; competitor AC1D4 20 µg/ml
[5] = biological target: human proinsulin (human) (UniProt P01308); experiment: competitive RIA, PEP001-coated tubes, 125I-Tyr-C-peptide; serum E1 overloaded with 0.16 pmol/ml proinsulin; competitor AC1D4 20 µg/ml
[6] = biological target: des-31,32-proinsulin (UniProt P01308); experiment: competitive RIA, PEP001-coated tubes, 125I-Tyr-C-peptide; serum E2 overloaded with 0.16 pmol/ml des-31,32-proinsulin; no AC1D4
[7] = biological target: des-64,65-proinsulin (UniProt P01308); experiment: competitive RIA, PEP001-coated tubes, 125I-Tyr-C-peptide; serum E1 overloaded with 0.67 pmol/ml des-64,65-proinsulin; competitor AC1D4 20 µg/ml
[8] = biological target: des-64,65-proinsulin (UniProt P01308); experiment: sandwich immunoenzymatic C-peptide assay: PEP001 beads, goat polyclonal conjugate; competitors AC1D4 + BC9B6 in equal quantities, 20 µg/ml
[9] = biological target: human proinsulin (human) (UniProt P01308); experiment: as above
[10] = biological target: des-31,32-proinsulin (UniProt P01308); experiment: as above
[11] = biological target: des-31,32-proinsulin (UniProt P01308); experiment: competitive RIA, PEP001-coated tubes, 125I-Tyr-C-peptide; serum E1 overloaded with 0.16 pmol/ml des-31,32-proinsulin; no AC1D4
[12] = biological target: des-31,32-proinsulin (UniProt P01308); experiment: competitive RIA, PEP001-coated tubes, 125I-Tyr-C-peptide; serum E1 overloaded with 3.33 pmol/ml des-31,32-proinsulin; competitor AC1D4 20 µg/ml
[13] = biological target: human proinsulin (human) (UniProt P01308); experiment: competitive RIA, PEP001-coated tubes, 125I-Tyr-C-peptide; serum E2 overloaded with 3.33 pmol/ml proinsulin; no AC1D4
[14] = biological target: des-64,65-proinsulin (UniProt P01308); experiment: sandwich immunoenzymatic C-peptide assay: PEP001 beads, goat polyclonal anti-C-peptide-alkaline phosphatase; competitor AC1D4 20 µg/ml
[15] = biological target: human proinsulin (human) (UniProt P01308); experiment: as above
[16] = biological target: des-31,32-proinsulin (UniProt P01308); experiment: as above
[17] = biological target: des-31,32-proinsulin (UniProt P01308); experiment: sandwich immunoenzymatic C-peptide assay: PEP001 beads, goat polyclonal conjugate; competitors AC1D4 + BC9B6 in equal quantities, 40 µg/ml
[18] = biological target: des-31,32-proinsulin (UniProt P01308); experiment: competitive RIA, PEP001-coated tubes, 125I-Tyr-C-peptide; serum E1 overloaded with 0.16 pmol/ml des-31,32-proinsulin; competitor AC1D4 20 µg/ml
[19] = biological target: des-64,65-proinsulin (UniProt P01308); experiment: competitive RIA, PEP001-coated tubes, 125I-Tyr-C-peptide; serum E1 overloaded with 3.33 pmol/ml des-64,65-proinsulin; no AC1D4
[20] = biological target: human proinsulin (human) (UniProt P01308); experiment: competitive RIA, PEP001-coated tubes, 125I-Tyr-C-peptide; serum E2 overloaded with 0.16 pmol/ml proinsulin; competitor AC1D4 20 µg/ml
[21] = biological target: human proinsulin (human) (UniProt P01308); experiment: competitive RIA, PEP001-coated tubes, 125I-Tyr-C-peptide; serum E2 overloaded with 0.67 pmol/ml proinsulin; competitor AC1D4 20 µg/ml
[22] = biological target: human proinsulin (human) (UniProt P01308); experiment: competitive RIA, PEP001-coated tubes, 125I-Tyr-C-peptide; serum E2 overloaded with 3.33 pmol/ml proinsulin; competitor AC1D4 20 µg/ml
[23] = biological target: des-64,65-proinsulin (UniProt P01308); experiment: competitive RIA, PEP001-coated tubes, 125I-Tyr-C-peptide; serum E1 overloaded with 0.16 pmol/ml des-64,65-proinsulin; competitor AC1D4 20 µg/ml
[24] = biological target: des-64,65-proinsulin (UniProt P01308); experiment: sandwich immunoenzymatic C-peptide assay: PEP001 beads, goat polyclonal conjugate; no AC1D4 or BC9B6
[25] = biological target: human proinsulin (human) (UniProt P01308); experiment: as above
[26] = biological target: des-31,32-proinsulin (UniProt P01308); experiment: as above
[27] = biological target: des-31,32-proinsulin (UniProt P01308); experiment: competitive RIA, PEP001-coated tubes, 125I-Tyr-C-peptide; serum E1 overloaded with 0.67 pmol/ml des-31,32-proinsulin; competitor AC1D4 20 µg/ml
[28] = biological target: des-64,65-proinsulin (UniProt P01308); experiment: competitive RIA, PEP001-coated tubes, 125I-Tyr-C-peptide; serum E2 overloaded with 0.67 pmol/ml des-64,65-proinsulin; no AC1D4
[29] = biological target: des-64,65-proinsulin (UniProt P01308); experiment: competitive RIA, PEP001-coated tubes, 125I-Tyr-C-peptide; serum E2 overloaded with 0.67 pmol/ml des-64,65-proinsulin; competitor AC1D4 20 µg/ml

PEP001 anti-C-peptide monoclonal antibody
percentage of cross reaction [1]: 94% | percentage of cross reaction [2]: 92% | percentage of cross reaction [3]: 108% | Increase after overload (%) [4]: 0% | Increase after overload (%) [5]: 0% | Increase after overload (%) [6]: 10% | Increase after overload (%) [7]: 63% | percentage of cross reaction [8]: 10% | percentage of cross reaction [9]: 2% | percentage of cross reaction [10]: 19% | Increase after overload (%) [11]: 8% | Increase after overload (%) [12]: 21% | Increase after overload (%) [13]: 54% | percentage of cross reaction [14]: 85% | percentage of cross reaction [15]: 8% | percentage of cross reaction [16]: 16% | percentage of cross reaction [17]: 13% | Increase after overload (%) [18]: 5% | Increase after overload (%) [19]: 267% | Increase after overload (%) [20]: 0% | Increase after overload (%) [21]: 1% | Increase after overload (%) [22]: 0% | Increase after overload (%) [23]: 10% | percentage of cross reaction [24]: 94% | percentage of cross reaction [25]: 92% | percentage of cross reaction [26]: 108% | Increase after overload (%) [27]: 12% | Increase after overload (%) [28]: 9% | Increase after overload (%) [29]: 18%
